From paper PMC12416549 (2024)

T1: TNFR1 (Homo sapiens, UniProt P19438)
T1 chain: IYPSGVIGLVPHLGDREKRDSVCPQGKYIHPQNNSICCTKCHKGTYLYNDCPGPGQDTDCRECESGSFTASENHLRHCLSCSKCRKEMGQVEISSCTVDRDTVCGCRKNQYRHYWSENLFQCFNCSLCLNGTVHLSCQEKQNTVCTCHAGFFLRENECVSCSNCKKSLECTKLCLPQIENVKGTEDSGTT


Target: T1, TNFR1
Experiment: yeast display SC50

Binder | apparent Kd (screen) [pM]
M1I (designed binder) ITLQELLREEALRRAEAEAFRYALELLAEKFPEQKEYLLDLAEEIESQIRSLSGVDVEDVRKFLDKEWAWVKELLAEHPAELAEVEAARAARLAELRAEVEAKVAA | 490
E5D (designed binder) MTLQDLLREEALRRAEAEAFRYALELLAEKFPEQKEYLLDLAEEIESQIRSLSGVDVEDVRKFLDKEWAWVKELLAEHPAELAEVEAARAARLAELRAEVEAKVAA | 490
K30T (designed binder) MTLQELLREEALRRAEAEAFRYALELLAETFPEQKEYLLDLAEEIESQIRSLSGVDVEDVRKFLDKEWAWVKELLAEHPAELAEVEAARAARLAELRAEVEAKVAA | 653
L96G (designed binder) MTLQELLREEALRRAEAEAFRYALELLAEKFPEQKEYLLDLAEEIESQIRSLSGVDVEDVRKFLDKEWAWVKELLAEHPAELAEVEAARAARLAEGRAEVEAKVAA | 2480
F63Q (designed binder) MTLQELLREEALRRAEAEAFRYALELLAEKFPEQKEYLLDLAEEIESQIRSLSGVDVEDVRKQLDKEWAWVKELLAEHPAELAEVEAARAARLAELRAEVEAKVAA | 2730
L24H (designed binder) MTLQELLREEALRRAEAEAFRYAHELLAEKFPEQKEYLLDLAEEIESQIRSLSGVDVEDVRKFLDKEWAWVKELLAEHPAELAEVEAARAARLAELRAEVEAKVAA | 1540
A90Q (designed binder) MTLQELLREEALRRAEAEAFRYALELLAEKFPEQKEYLLDLAEEIESQIRSLSGVDVEDVRKFLDKEWAWVKELLAEHPAELAEVEAARQARLAELRAEVEAKVAA | 593
A90S (designed binder) MTLQELLREEALRRAEAEAFRYALELLAEKFPEQKEYLLDLAEEIESQIRSLSGVDVEDVRKFLDKEWAWVKELLAEHPAELAEVEAARSARLAELRAEVEAKVAA | 490
L24M (designed binder) MTLQELLREEALRRAEAEAFRYAMELLAEKFPEQKEYLLDLAEEIESQIRSLSGVDVEDVRKFLDKEWAWVKELLAEHPAELAEVEAARAARLAELRAEVEAKVAA | 718
I49C (designed binder) MTLQELLREEALRRAEAEAFRYALELLAEKFPEQKEYLLDLAEEIESQCRSLSGVDVEDVRKFLDKEWAWVKELLAEHPAELAEVEAARAARLAELRAEVEAKVAA | 2480
R50V (designed binder) MTLQELLREEALRRAEAEAFRYALELLAEKFPEQKEYLLDLAEEIESQIVSLSGVDVEDVRKFLDKEWAWVKELLAEHPAELAEVEAARAARLAELRAEVEAKVAA | 1400
L41C (designed binder) MTLQELLREEALRRAEAEAFRYALELLAEKFPEQKEYLLDCAEEIESQIRSLSGVDVEDVRKFLDKEWAWVKELLAEHPAELAEVEAARAARLAELRAEVEAKVAA | 2480
A69M (designed binder) MTLQELLREEALRRAEAEAFRYALELLAEKFPEQKEYLLDLAEEIESQIRSLSGVDVEDVRKFLDKEWMWVKELLAEHPAELAEVEAARAARLAELRAEVEAKVAA | 790
L27Q (designed binder) MTLQELLREEALRRAEAEAFRYALELQAEKFPEQKEYLLDLAEEIESQIRSLSGVDVEDVRKFLDKEWAWVKELLAEHPAELAEVEAARAARLAELRAEVEAKVAA | 446
E5Q (designed binder) MTLQQLLREEALRRAEAEAFRYALELLAEKFPEQKEYLLDLAEEIESQIRSLSGVDVEDVRKFLDKEWAWVKELLAEHPAELAEVEAARAARLAELRAEVEAKVAA | 490
T2G (designed binder) MGLQELLREEALRRAEAEAFRYALELLAEKFPEQKEYLLDLAEEIESQIRSLSGVDVEDVRKFLDKEWAWVKELLAEHPAELAEVEAARAARLAELRAEVEAKVAA | 1160
F63G (designed binder) MTLQELLREEALRRAEAEAFRYALELLAEKFPEQKEYLLDLAEEIESQIRSLSGVDVEDVRKGLDKEWAWVKELLAEHPAELAEVEAARAARLAELRAEVEAKVAA | 869
K30A (designed binder) MTLQELLREEALRRAEAEAFRYALELLAEAFPEQKEYLLDLAEEIESQIRSLSGVDVEDVRKFLDKEWAWVKELLAEHPAELAEVEAARAARLAELRAEVEAKVAA | 1050

Binder | apparent Kd (screen) [pM]
L96M (designed binder) MTLQELLREEALRRAEAEAFRYALELLAEKFPEQKEYLLDLAEEIESQIRSLSGVDVEDVRKFLDKEWAWVKELLAEHPAELAEVEAARAARLAEMRAEVEAKVAA | 718
E36Y (designed binder) MTLQELLREEALRRAEAEAFRYALELLAEKFPEQKYYLLDLAEEIESQIRSLSGVDVEDVRKFLDKEWAWVKELLAEHPAELAEVEAARAARLAELRAEVEAKVAA | 539
A15W (designed binder) MTLQELLREEALRRWEAEAFRYALELLAEKFPEQKEYLLDLAEEIESQIRSLSGVDVEDVRKFLDKEWAWVKELLAEHPAELAEVEAARAARLAELRAEVEAKVAA | 593
L12S (designed binder) MTLQELLREEASRRAEAEAFRYALELLAEKFPEQKEYLLDLAEEIESQIRSLSGVDVEDVRKFLDKEWAWVKELLAEHPAELAEVEAARAARLAELRAEVEAKVAA | 1160
L82S (designed binder) MTLQELLREEALRRAEAEAFRYALELLAEKFPEQKEYLLDLAEEIESQIRSLSGVDVEDVRKFLDKEWAWVKELLAEHPAESAEVEAARAARLAELRAEVEAKVAA | 1540
A42Y (designed binder) MTLQELLREEALRRAEAEAFRYALELLAEKFPEQKEYLLDLYEEIESQIRSLSGVDVEDVRKFLDKEWAWVKELLAEHPAELAEVEAARAARLAELRAEVEAKVAA | 11400
F63P (designed binder) MTLQELLREEALRRAEAEAFRYALELLAEKFPEQKEYLLDLAEEIESQIRSLSGVDVEDVRKPLDKEWAWVKELLAEHPAELAEVEAARAARLAELRAEVEAKVAA | 2480
L7D (designed binder) MTLQELDREEALRRAEAEAFRYALELLAEKFPEQKEYLLDLAEEIESQIRSLSGVDVEDVRKFLDKEWAWVKELLAEHPAELAEVEAARAARLAELRAEVEAKVAA | 790
L74I (designed binder) MTLQELLREEALRRAEAEAFRYALELLAEKFPEQKEYLLDLAEEIESQIRSLSGVDVEDVRKFLDKEWAWVKEILAEHPAELAEVEAARAARLAELRAEVEAKVAA | 2730
K35Y (designed binder) MTLQELLREEALRRAEAEAFRYALELLAEKFPEQYEYLLDLAEEIESQIRSLSGVDVEDVRKFLDKEWAWVKELLAEHPAELAEVEAARAARLAELRAEVEAKVAA | 446
E81T (designed binder) MTLQELLREEALRRAEAEAFRYALELLAEKFPEQKEYLLDLAEEIESQIRSLSGVDVEDVRKFLDKEWAWVKELLAEHPATLAEVEAARAARLAELRAEVEAKVAA | 539
I49A (designed binder) MTLQELLREEALRRAEAEAFRYALELLAEKFPEQKEYLLDLAEEIESQARSLSGVDVEDVRKFLDKEWAWVKELLAEHPAELAEVEAARAARLAELRAEVEAKVAA | 2730
E44T (designed binder) MTLQELLREEALRRAEAEAFRYALELLAEKFPEQKEYLLDLAETIESQIRSLSGVDVEDVRKFLDKEWAWVKELLAEHPAELAEVEAARAARLAELRAEVEAKVAA | 9410
E99N (designed binder) MTLQELLREEALRRAEAEAFRYALELLAEKFPEQKEYLLDLAEEIESQIRSLSGVDVEDVRKFLDKEWAWVKELLAEHPAELAEVEAARAARLAELRANVEAKVAA | 718
K103N (designed binder) MTLQELLREEALRRAEAEAFRYALELLAEKFPEQKEYLLDLAEEIESQIRSLSGVDVEDVRKFLDKEWAWVKELLAEHPAELAEVEAARAARLAELRAEVEANVAA | 490
E84N (designed binder) MTLQELLREEALRRAEAEAFRYALELLAEKFPEQKEYLLDLAEEIESQIRSLSGVDVEDVRKFLDKEWAWVKELLAEHPAELANVEAARAARLAELRAEVEAKVAA | 869
E58Y (designed binder) MTLQELLREEALRRAEAEAFRYALELLAEKFPEQKEYLLDLAEEIESQIRSLSGVDVYDVRKFLDKEWAWVKELLAEHPAELAEVEAARAARLAELRAEVEAKVAA | 539
